Changes are numbered by the printed parent chain.
B1: G9 (VHH)
VHH: DVQLVESGGGLVQPGGSLRLSCAASGLTLDNYDMAWFRQAPGKEREFVTAINYVGGRTYADSVRGRFTISRDDTKNTVYLQMNSLKPEDTAVYYCAAGLQYGITSLRTRNYNYWGQGTQVTVSS
B2: G7 (VHH)
VHH: QVQLVESGGGLVQPGDSLRLSCAVSGQYVNMAAMGWFRQAPGKEREFVAGISWSDDTDIADSVKGRFTISRDHGKNTVDLQMNSLKPEDTGVYLCAGRFRRLAKDFGEYDYWGQGTQVTVSS
B3: G13 (VHH)
VHH: DVQLVESGGGVVQAGGSLRLSCAASGRTFSDYAMGWFRQAPGKEREFVAGVSWSGVDTYYADSVKGRFTISRDNAKNTLYVQMNSLKPEDTAVYYCAAQRYYHGHAKNMRYDYWGQGTQVTVSS
notes: also called G13(C3)
B4: G82 (VHH)
VHH: HVQLVESGGGLVQAGGSLRLSCAASGKIFSLSTMGWYRQAPGKQRELVAALTSGGSTNYADSVKGRFTISRDNAKYTTYLQMNSLKPEDTAVYYCNVRYYSGYDGYESNSWGQGTQVTVSS
B5: G2 (VHH)
VHH: EVQLVESGGDLVQAGGSLRLSCSASGNIFKINDMGWYRQAPGKQRELVARISSSGNTNYADSVKGRFTISRDNGKNTVYLQMNRVKPEDTAVYYCNADVQVSRNYEYEYWGQGTQVTVSS
B6: G48 (VHH)
VHH: QVQLVESGGGLVQAGGSLRLSCAASGRTFSTLSMGWFRQAPGQGREFVGGINYDGSSVEYADSVKGRFTISRDNAKNMMYLQMNSLKPEDTAAYYCASSRGYNTGTNPLGYDVWGQGTQVTVSS
B7: G83 (VHH)
VHH: QVQLVESGGGLVQAGGSLRLSCAASRRTFSIYNMGWFRQAPGKEREFVATITRYGDRTYTADSVKGRFTISSDQAKNTVYLQMNSLNPHDTAVYYCAADSAYSGPDFKHYDYWGQGTQVTVSS
B8: G95 (VHH)
VHH: HVQLVESGGGLVQAGGSLRLSCAASGRTFSSYAMAWFRQAVGKEREFVAAVSRSGTNLYYADSVKGRFTISRDTAKNTMYLQMNSLKPEDTALYYCAAGEALRWGIGQQPRSEFFDYWGQGTQVTVSS
notes: also called G95(C2)
B9: G34 (VHH)
VHH: QVQLVESGGGLVQAGDSLRLSCAASGRTFSRYAMAWFRQAPGKEREFVAGISWTGRFTYYADSVKGRFTISRDDAKNTVYLQMNNLKPEDTGLYFCKVGDPYGVGLREYEWWGPGTQVTVSS
B10: G17 (VHH)
VHH: EVQLVESGGGLVQAGGSLRLSCAASGVTISYWVMGWFRQAPGKEREFVARISWGGERTYYADSVKGRFAISRDNAKNTVYLQMNSLNAEDTAVYYCAADRTGWGHSNSRSEYDYWGQGTQVTVSS
B11: G47 (VHH)
VHH: QVQLVESGGGLVQAGGSLRLSCAASERIFSNYAMGWFRQAPGKEREFVASIRGSGSQTSYADSVKGRFTISRDGAKDTVDLQMNSLKPEDTAVYYCSAKKYCGSTYNRAEGYDYWGQGTQVTVSS
B12: G22 (VHH)
VHH: QVQLVESGGGSVQAGGSLRLSCAASGRTFSSYSMAWFRQAPGKEREFVAVMNCRYGDTDYPDSVKGRFTMSRDNAKNTLYLQMNSLKPEDTAVYYCAAKLIAYCGSGYYYRRNDYGYWGQGTQVTVSS
B13: G6 (VHH)
VHH: QVQLVESGGGLVQAGGSLRLSCAASGRTISSYAMGWFRQAPGKERELVARITSSAGSTYYADSVKGRFTISRDNAKNTMYLQMNSLKPEDTAVYYCAVEIVRAQYDYWGQGTQVTVSS
B14: G38 (VHH)
VHH: EVQLVESGGGLVQAGGSLRLSCVASGHTDCISGMGWYRQAPGKERELVAVLIGGGNTYYGDSVKGRFTISKDKAKNTLYLQMKTLKPEDMAVYYCTADDHGSECPNKEMSSTATYWGQGTQVTVSS
B15: G46 (VHH)
VHH: DVQLVESGGGLVQAGGSLRLSCAASGRTFSRYHMGWFRQAPGKERDVVAAISWSGDSTYYADSVKGRFTISKDNAKNTVYLQMDNLKPEDTAVYYCNVRGGVLRPYDYWGQGTQVTVSS
B16: G36 (VHH)
VHH: QMGRNSAQVQLVESGGSLRLSCAASGFALSNSYMKWVRQAPGKGPEWVSTIYADGSTYYTDSVKGRFITSRDNSKNTMYLQMSDLKPEDTAVYYCANPSAKGQGTQVTVSS
B17: G72 (VHH)
VHH: QVQLVESGGGLVQPGGSLRLSCATSGSTFSINGIGWYRQVPGIEREFVAGVSTDGKANYADSVAGRFTISINDGKNTAYLQMNSLKPEDTAVYYCNVDSTKGYYWGQGTQVTVSS
B18: G85 (VHH)
VHH: HVQLVESGGGLVQPGGSLRLSCAASGFTFSTYAMGWVRQAPGKGPEWVATIYSKGDTTHYANSAKGRFTISRDNARNTLYLQMNSLKPEDTAVYYCAKGISDSYLRVESNYRGQGTQVTVSS
B19: G5 (VHH)
VHH: EVQLVESGGGVVQPGGSLTLSCAASGFAFRNYAMSWVRQAPGKGPEWVSQINGRGGYTSYADSVKGRFTISRDNTKNTLYLQMNNLKPDDTAVYYCAKDPTQLRWIPVPNYILGSTKGQGTQVTVSS
B20: G32 (VHH)
VHH: QVQLVESGGGLVRAGDSLRLSCVVSGRPISSYAMAWFRQAPGKDREVVAGISANGDRTHYADSIKGRFTVSRDNAKNSMTLQMNKLKPEDTAVYYCAADSLTEGGYGLTGDFDYWGQGTQVTVSS
B21: G76 (VHH)
VHH: QVQLVESGGGLVQPGGSLRLSCVVSGFPFSEYAMSWVRQTPEKGREWVSGIYTDGSETLYENSVKGRFTISRDNTKNTLYLQMNNLKPEDTARYYCKLGDPYGVGLRDYEYLGHGTQVTVSS
B22: G81 (VHH)
VHH: EVQLVESGGELVQAGGSLRLSCAASGRTDSVTRMAWFRQAPGKEREFVAAITWSSGYTYYPDSVKGRFTISRDNAKNTMYLQMNSLKAEDTAVYICAAAVGVISEYNSWGQGTQVTVSS
B23: G29 (VHH)
VHH: QVQLVESGGGLVQAGDSLLLSCGTSGRTFSSNTMGWFRQAPGKGREFVATITASGRGTNYGDSVRGRFTISRDNDKNTVYLQMNNLKPDDTGVYTCAASDSPYGSRWIEAYGYWGQGTQVTVSS
B24: G33 (VHH)
VHH: QMGRNSAEVQLVESGGSLRLSCSVSGGPFTSNGMGWYRQAPGKEREWVAAITNSGSANYADSVKGRFTVSMVNANNTMYLQMNNLKPDDTAVYYCNVAGWPHGYWGQGTQVTVSS
B25: G87 (VHH)
VHH: B12 VHH with Q1E, S11L, G16D, S33N, M34L, A35G, Q82E, S85N, L100V, I101L
B26: H1 (VHH)
VHH: QVQLVESGGGLVQPGGSLRLSCVASGIMFDIYTMRWYRQAPGKQRELVAAITGAGRANYNDDSVKGRFTISRDNAKNTVYLQMNRMKPEDTALYECNTEILGGGPNYWGRGTQVTVSE
B27: H15 (VHH)
VHH: QVQLVESGGGLVQAGDSLRLSCAASERTSNYAMGWFRQAPGKEREFVADINHTGGRRKYGDSVKGRFTISRDNAENMVYLQMNNLQVEDTAVYYCATGLRYDVSGYAPDYRYWGRGTQVTVSS
B28: H24 (VHH)
VHH: QVQLVESGGGLVQAGGSLRLSCVSSGRTYRWNAMGWFRQAPGKEREFVAAIDWDGRNTDYADSVKGRFTISRDNAKNTVYLQMNSLKVEDTAIYYCAAREWGSGGYSSIASYAYWGQGTQVTVSS

Target: T1, glutathione S-transferase (UniProt P08515 1-218 = GST)
T1 construct: Expressed in E. coli, purified on GSH resin; also called GST
T1 sequence (P08515 whole entry): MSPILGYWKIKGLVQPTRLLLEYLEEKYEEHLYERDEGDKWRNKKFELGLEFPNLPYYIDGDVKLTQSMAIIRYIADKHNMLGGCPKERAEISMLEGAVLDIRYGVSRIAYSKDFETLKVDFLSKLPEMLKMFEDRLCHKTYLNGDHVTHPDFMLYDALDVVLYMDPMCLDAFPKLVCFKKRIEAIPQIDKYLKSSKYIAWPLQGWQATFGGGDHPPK
Assay: SPR, GST immobilised;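 note: nanobody analytes injected as dilution series over three orders of magnitude across antigen on a CM5 chip, kinetics fitted by 1:1 Langmuir model, optionally with mass transfer, duplicate runs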
Method: Nb affinity measurement by SPR. Surface plasmon resonance (SPR, Biacore 3000 system, GE Healthcare) was used to measure Nb affinities. Antigen proteins immobilized on the activated CM5 sensor-chip by the following steps. Protein analytes were diluted to 10-30 μg/ml in 10 mM sodium acetate, pH 4.5, and were injected into the SPR system at 5 μl/min for 420 s. The surface of the sensor was then blocked by 1 M ethanolamine-HCl (pH 8.5). For each Nb analyte, a series of dilution (spanning three orders of magnitude) was injected in HBS-EP+ running buffer (GE-Healthcare) containing 2 mM DTT, at a flow rate of 20-30 μl/min for 120-180 s, followed by a dissociation time of 5-20 mins based on dissociation rate. Between each injection, the sensor chip surface was regenerated with the low pH buffer containing 10 mM glycine-HCl (pH 1.5-2.5), or high pH buffer of 20-40 mM NaOH (pH 12-13). The regeneration was performed with a flow rate of 40-50 μl/min for 30 s. The measurements were duplicated and only highly reproducible data was used for analysis. Binding sensorgrams for each Nb were processed and analyzed using BIAevaluation by fitting with 1:1 Langmuir model or 1:1 Langmuir model with mass transfer.

Binder | Kd [nM] | koff [s⁻¹] | kon [M⁻¹ s⁻¹]
B1 | 0.177 | 0.000353 | 2e+06
B2 | 268 | 0.000809 | 3020
B3 | 0.36 | 0.00017 | 474000
B4 | 0.504 | 0.000561 | 1.11e+06
B5 | 2000 | 0.00204 | –
B6 | 126 | 0.000753 | 5930
B7 | 0.761 | 0.000751 | 987000
B8 | 77 | 0.00107 | 13900
B9 | 17.6 | 0.000462 | 26300
B10 | 0.0217 | 2.92e-05 | 1.34e+06
B11 | 32.4 | 0.0127 | 391000
B12 | 40.5 | 0.00125 | 30900

Target: T1, glutathione S-transferase
Assay: indirect ELISA, GST coated;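 note: nanobody dilution series starting at 10 µM binding plate-bound antigen, HRP anti-His or anti-T7 tag detection, TMB absorbance at 450 nm, logIC50 from four-parameter logistic fit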
Method: (§1) Indirect ELISA was carried out to evaluate the camelid immune response of an antigen and to quantify the relative affinities of antigen-specific Nbs. An antigen was coated onto a 96-well ELISA plate (R&D system) at an amount of approximately 1-10 ng per well in a coating buffer (15 mM sodium carbonate, 35 mM sodium bicarbonate, pH 9.6) overnight at 4° C. The well surface was then blocked with a blocking buffer (DPBS, 0.05% Tween 20, 5% milk) at room temperature for 2 hours. To test an immune response, the immunized serum was serially 5-fold diluted in the blocking buffer. The diluted sera were incubated with the antigen coated wells at room temperature for 2 hours. HRP-conjugated secondary antibodies against llama Fc (Bethyl) were diluted 1:10,000 in the blocking buffer and incubated with each well for 1 hour at room temperature. […] Nbs of both specific binders for test and scramble negative controls were serially 10-fold diluted from 10 μM to 1 μM in the blocking buffer. HRP-conjugated secondary antibodies against His-tag (Genscript) or T7-tag (Thermo) were diluted 1:5,000 or 1:10,000 in the blocking buffer and incubated for 1 hour at room temperature. Three washes with 1x PBST (DPBS, 0.05% Tween 20) were carried out to remove nonspecific absorbance between incubations. After the final wash, the samples were further incubated under dark with freshly prepared w3,3′,5,5′-Tetramethylbenzidine (TMB) substrate for 10 mins at room temperature to develop the signals. After the STOP solution (R&D system), the plates were read at multiple wavelengths (450 nm and 550 nm) on a plate reader (Multiskan GO, Thermo Fisher). A false positive Nb binder was defined if any of the following two criteria was met: i) the ELISA signal can only be detected at a concentration of 10 μM and was under detected at 1 μM concentration. ii) At 1 μM concentration, a pronounced signal decrease (by more than 10-fold) was detected compared to the signal at 10 μM, while there were no signals can be detected at lower concentrations. The raw data was processed by Prism 7 (GraphPad) to fit into a 4PL curve and to calculate logIC50.

Binder | binding result | ELISA affinity (LogIC50 (oD450nm))
B13 | no binding (tested: Nb titrated from 10 µM) | –
B14 | no binding (tested: Nb titrated from 10 µM) | –
B1 | – | 8.05
B15 | no binding (tested: Nb titrated from 10 µM) | –
B2 | – | 1.89
B3 | – | 6.74
B16 | no binding (tested: Nb titrated from 10 µM) | –
B17 | no binding (tested: Nb titrated from 10 µM) | –
B18 | no binding (tested: Nb titrated from 10 µM) | –
B19 | no binding (tested: Nb titrated from 10 µM) | –
B4 | – | 7.22
B5 | – | 2.67
B6 | – | 1.6
B20 | no binding (tested: Nb titrated from 10 µM) | –
B7 | – | 8.72
B8 | – | 3.76
B21 | no binding (tested: Nb titrated from 10 µM) | –
B22 | no binding (tested: Nb titrated from 10 µM) | –
B9 | – | 5.32
B23 | no binding (tested: Nb titrated from 10 µM) | –
B10 | – | 9.81
B11 | – | 3.86
B24 | no binding (tested: Nb titrated from 10 µM) | –
B12 | – | 2.07
B25 | no binding (tested: Nb titrated from 10 µM) | –

Target: T2, human serum albumin (human, UniProt P02768 25-609)
T2 construct: In the mutant screen wild type HSA came from medium of transfected HeLa cells; also called HSA; wild type HSA
T2 sequence (P02768 25-609 limits assumed): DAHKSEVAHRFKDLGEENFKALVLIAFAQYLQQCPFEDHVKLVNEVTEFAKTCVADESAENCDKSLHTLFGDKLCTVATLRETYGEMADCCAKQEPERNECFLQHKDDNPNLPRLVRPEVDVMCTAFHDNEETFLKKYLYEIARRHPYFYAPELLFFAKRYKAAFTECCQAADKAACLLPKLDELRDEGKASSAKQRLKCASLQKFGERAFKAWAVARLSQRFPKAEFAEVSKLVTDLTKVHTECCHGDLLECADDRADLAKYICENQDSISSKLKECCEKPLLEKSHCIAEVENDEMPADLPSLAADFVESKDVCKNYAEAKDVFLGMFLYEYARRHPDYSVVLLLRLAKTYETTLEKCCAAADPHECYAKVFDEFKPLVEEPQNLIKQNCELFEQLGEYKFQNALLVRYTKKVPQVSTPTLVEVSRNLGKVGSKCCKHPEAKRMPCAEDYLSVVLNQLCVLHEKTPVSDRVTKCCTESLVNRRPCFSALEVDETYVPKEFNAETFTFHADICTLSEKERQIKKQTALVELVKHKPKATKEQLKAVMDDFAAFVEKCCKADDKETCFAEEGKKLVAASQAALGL
Assay: indirect ELISA, HSA coated
Method: as §1

Binder | ELISA affinity (LogIC50 (oD450nm)) | binding result
B26 | 4.92 | –
B27 | – | no binding (tested: Nb titrated from 10 µM)
B28 | – | no binding (tested: Nb titrated from 10 µM)

Reference: patent publication US20230176070A1 (published 2023)
